Here are results for 167 variants from the RNAGym collection of RNA variant scans (doi:10.7554/elife.90254).

Sequences and labels used below:
B1: LINE1-full (parent)
chain: UACGUAGGUGGUUUUCCCCUGAUAGUGCUAAGGGGGCCUGGAAGUUUGGACUGGGCAGAGCUCAACACAGCGUGGCAAAGUGGCUGUGGCUAGACUGCCUCUCUGGAUUCCUCGUCACUCAGCAGGGCAUCUCUGAGAGAAAUGCC

The variants in the data set derive from B1. Description: self-cleavage, relative activity (ratio to wild type); higher = more cleavage; in vitro, sequencing; the parent is a self-cleaving ribozyme.
Consider G54U A129G, for which the self-cleavage was 1.02. For A59G A67G, the self-cleavage is 0.08. For A57G G125A, the self-cleavage worked out at 0.52.

On to A57G G125U, for which the self-cleavage was found to be 0.92. On to A59G A117U, for which the self-cleavage worked out at 0.08. In the case of A57U A78G, the self-cleavage stood at 0.03. As for G54C U104C, the figure is 1.3; as for A57C U102A, 0.06; as for G55A G114U, 0.22. Regarding A57C A107U, the self-cleavage is 0.07. With A59G C110U the figure was 0.1; with G55C A142G, 0.06; with A57C A94G, 0.25. As for C56U U134C, the figure is 0.23; as for G54A A117C, 1.1. Turning to G54A A117U, the self-cleavage was 1.1. On to A57C U91C, for which the self-cleavage was 0. As for G58A U130C, the figure is 0.05. As for G55U U134G, the figure is 0.15; as for A59C A77U, 0.6; as for A57C U130C, 0.18.

As for C56A C120U, the self-cleavage came out at 0.17. As to A57G U73G, the self-cleavage amounted to 0.69. As for A57G U73C, the self-cleavage is 1.17. As for A57U A59U, the figure is 0.07; as for G54A U134G, 0.76; as for A57G U119A, 0.85. Consider A57G U112A, for which the self-cleavage was 0.99. Consider A57C A67U, for which the self-cleavage is 0.14. Turning to A57G C98G, the self-cleavage was determined as 0.07.

As for A57G A67G, the self-cleavage is 0.28. Regarding A57C U112C, the self-cleavage is 0.08. As to G58A U102C, the self-cleavage was 0.04. With G58A A59G the figure was 0. Turning to G54A U130C, the self-cleavage was 0.9. As for A57G U102C, the self-cleavage stood at 0.43. Turning to A59G G89A, the self-cleavage was 0.01. In the case of A59G G89U, the self-cleavage amounted to 0.02.

Consider A57G G127A, for which the self-cleavage worked out at 0.94. With G55A A141G, the self-cleavage is 0.11. Consider A57C A129G, for which the self-cleavage stood at 0.14. Consider A59G A107U, for which the self-cleavage was determined as 0.04. On to A57G G114A, for which the self-cleavage came out at 0.84. As to C56A G106A, the self-cleavage is 0.08.

Take A57G A124C: the self-cleavage came to 0.91. Consider G55U C133A, for which the self-cleavage stood at 0.26.

G58A U81G: the self-cleavage turned out to be 0.12. Consider A57C A65G, for which the self-cleavage was found to be 0.

Regarding G54A A138G, the self-cleavage was found to be 0.84. As for A57G G137A, the figure is 0.99; as for A57U U104C, 0.15; as for C56A U96A, 0.03. Take A57U A67G: the self-cleavage is 0.12. On to A57U A67C, for which the self-cleavage came to 0.07.

Take G58U G80A: the self-cleavage turned out to be 0. Take A59G C71A: the self-cleavage stood at 0.06. As for A59C U115C, the self-cleavage amounted to 1.55. Consider A57U U96C, for which the self-cleavage is 0.06. As to A57U U96A, the self-cleavage was determined as 0.52.

With A57U U96G, the self-cleavage amounted to 0.22. With A59G A140U, the self-cleavage was 0.09.

Take A59G A140G: the self-cleavage came out at 0.09. Take C56U A69G: the self-cleavage came out at 0.02. Turning to C56U A69U, the self-cleavage was determined as 0.02.

As for A57G A94G, the self-cleavage was 0.16. Turning to A57U C128U, the self-cleavage stood at 0.11.

On to A57G G82A, for which the self-cleavage worked out at 1.75. A57G G82C: the self-cleavage turned out to be 1.36. With A59G C116U the figure was 0.07; with A59G C116A, 0.04; with A57G A69G, 0.21. With A59G G70C the figure was 0.04. As for G55U U96C, the figure is 0.08; as for G55C A94C, 0. In the case of A57G U100C, the self-cleavage came out at 1.99. A57G A142U: the self-cleavage was 0.38. As for A57G A142G, the figure is 0.84; as for A57U U134G, 0.02. As for A57U U134C, the figure is 0.12. With A57C A78G, the self-cleavage is 0.

For the variant G54A A142G, the self-cleavage is 0.83. As for A57U U81A, the figure is 0.05; as for A57U U81C, 0.12; as for C56A U134C, 0.07. Take C56U A65G: the self-cleavage stood at 0.03. Turning to C56U C128U, the self-cleavage is 0.22. For the variant A57G U87A, the self-cleavage was 0.08. Turning to G58A U143C, the self-cleavage is 0. With A57U A64G the figure was 0.1. Take G54A U108C: the self-cleavage was determined as 0.89. As for A57G G106U, the self-cleavage stood at 0.58. A57U G75A: the self-cleavage was 0.03. A57U A79G: the self-cleavage came to 0.06. With A57U A79U, the self-cleavage is 0.1. With A59G C118U, the self-cleavage was 0.02. With A59G C63U the figure was 0.05.

For G55A U108C, the self-cleavage worked out at 0.52. As for A59G A141U, the figure is 0.2; as for A59G A141G, 0.08. With A57U A65U, the self-cleavage is 0.06. As for G54A A79G, the self-cleavage was 0.4. As to G54U G82A, the self-cleavage came to 1.26. Consider A57G A107G, for which the self-cleavage is 1.01. For A57G G74A, the self-cleavage worked out at 0.46. Regarding C56U A142G, the self-cleavage is 0.11. For A59G A121C, the self-cleavage came out at 0.09.

For A59G A121G, the self-cleavage came out at 0.23.

Regarding A59G A121U, the self-cleavage was determined as 0.08. For the variant G55C A67G, the self-cleavage was 0.05. As for G54U A64G, the self-cleavage is 0.21.

In the case of A57U U87C, the self-cleavage came to 0.04. As for A57U U87A, the figure is 0.05; as for G54A C116A, 0.47. Regarding A59G A65G, the self-cleavage turned out to be 0.11. With G54A U81A the figure was 0.78; with A57U G135U, 0.08.

In the case of C56A U130G, the self-cleavage worked out at 0.03. As for C56U U85C, the self-cleavage turned out to be 0.07. As for C56U U85G, the self-cleavage came out at 0.03. Consider A57G A121U, for which the self-cleavage was determined as 1.

Consider G54C A138G, for which the self-cleavage was 1.35.

On to G55A U87C, for which the self-cleavage came out at 0.04. Take A57C U87C: the self-cleavage was 0.

On to G54A G72A, for which the self-cleavage worked out at 0.45. As for A57U C71U, the figure is 0.02.

On to A57U U143A, for which the self-cleavage was 0.11. Take A57C C131A: the self-cleavage came to 0.08. Turning to G54A U96C, the self-cleavage was 0.04. As to G54A U96A, the self-cleavage stood at 0.03.

Regarding G58A U87C, the self-cleavage was 0. For C56U A117G, the self-cleavage turned out to be 0.18. For G58A A107G, the self-cleavage was found to be 0.04. Turning to A59G C61G, the self-cleavage turned out to be 0. As to C56U A107G, the self-cleavage was determined as 0.1. On to A57G A59G, for which the self-cleavage turned out to be 0.62. As for G54A U112A, the self-cleavage stood at 0.83. On to C56A A124G, for which the self-cleavage is 0.03. As for A57G G89A, the figure is 0.04; as for G55C A57U, 0.02; as for A57G C71G, 0.07. Regarding G58A A79G, the self-cleavage worked out at 0.06. With C56U C76U the figure was 0.34; with A57G A117U, 0.79.

A59C U87A: the self-cleavage amounted to 0.04. Turning to G54A A94G, the self-cleavage turned out to be 0.15. As to G54A A107G, the self-cleavage was determined as 0.47. As for A59G A129G, the figure is 0.07.

Take G54A U85C: the self-cleavage came to 0.03. With A59G G75A the figure was 0.04; with A57C U96A, 0.01. For the variant A57C U96C, the self-cleavage was 0.08. Regarding A57U A138G, the self-cleavage amounted to 0.15. As for A57G A140G, the self-cleavage is 0.91.

Regarding C56U A92G, the self-cleavage came out at 0.06. As for G53U U130C, the self-cleavage stood at 1.5. With A57U G126U the figure was 0.1. Consider G54A U73C, for which the self-cleavage came out at 0.67.

On to G55C C146U, for which the self-cleavage came to 0.25. With A57C C61U the figure was 0.05; with G55A A79G, 0.4; with G58A A129U, 0.06. For the variant G58A A129G, the self-cleavage worked out at 0.03. For the variant G58A C145U, the self-cleavage turned out to be 0.04. With G53U U73C the figure was 1.22; with A57U G144U, 0.3; with A57G G60A, 0.06. With G58U A65U the figure was 0.04.
